The text below walks through data of US20240287172A1 (SCIRHOM, published 2024).

One assay has as its target T1, miR2-FL-WT-T7 (mouse, UniProt Q80WQ6 1-827).
T1 construct: on MEF-DKO cells
T1 sequence: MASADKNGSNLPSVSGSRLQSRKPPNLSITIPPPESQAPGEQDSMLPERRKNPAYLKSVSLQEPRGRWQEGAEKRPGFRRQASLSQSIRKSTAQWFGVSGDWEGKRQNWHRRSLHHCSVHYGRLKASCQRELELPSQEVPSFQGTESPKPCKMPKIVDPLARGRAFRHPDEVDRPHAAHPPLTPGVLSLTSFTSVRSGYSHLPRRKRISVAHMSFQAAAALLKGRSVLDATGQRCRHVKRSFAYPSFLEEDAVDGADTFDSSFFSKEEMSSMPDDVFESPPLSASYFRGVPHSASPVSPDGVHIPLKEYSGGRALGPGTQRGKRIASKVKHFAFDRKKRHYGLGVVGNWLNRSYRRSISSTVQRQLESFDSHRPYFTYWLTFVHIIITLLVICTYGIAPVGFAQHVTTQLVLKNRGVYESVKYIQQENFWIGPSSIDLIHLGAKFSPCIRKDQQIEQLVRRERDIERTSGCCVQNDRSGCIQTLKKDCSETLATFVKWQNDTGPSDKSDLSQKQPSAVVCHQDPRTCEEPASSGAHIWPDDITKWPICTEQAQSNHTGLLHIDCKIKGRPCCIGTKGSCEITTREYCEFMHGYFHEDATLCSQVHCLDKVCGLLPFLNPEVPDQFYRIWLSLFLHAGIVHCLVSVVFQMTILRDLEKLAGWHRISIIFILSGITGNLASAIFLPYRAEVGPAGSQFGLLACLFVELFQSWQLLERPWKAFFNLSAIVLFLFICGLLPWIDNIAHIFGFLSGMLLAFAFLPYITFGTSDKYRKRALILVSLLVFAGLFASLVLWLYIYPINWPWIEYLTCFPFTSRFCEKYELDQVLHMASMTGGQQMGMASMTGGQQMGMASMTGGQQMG
Briefly: FACS, MEF-DKO-miR2-FL-WT-T7 cells. On the procedure: In brief, immortalized MEF-DKO-EV control cells, MEF-DKO-hiR2-FL-WT-T7 cells and MEF-DKO-miR2-FL-WT-T7 cells were harvested with 10 mM EDTA in PBS, washed and resuspended in FACS buffer (PBS, 3% FBS, 0.05% sodium azide), and seeded in Nunc U-bottom 96-well plates (Thermo Fisher Scientific, USA) at approximately 3×10⁵ cells per well. To pellet cells and remove supernatants, the plates were centrifuged at 1,500 rpm and 4° C. for 3 minutes. For primary staining, cells were resuspended in 100 μl per well of either FACS buffer alone (controls), mouse monoclonal anti-T7 IgG (Merck Millipore, USA) at 3 μg/ml FACS buffer or the purified antibodies 3, 5, 16, 22, 34, 42, 43, 44, 48, and 50 of the invention also at 3 μg/ml FACS buffer and incubated on ice for 1 hour. Afterwards, plates were centrifuged at 1,500 rpm and 4° C. for 3 minutes and washed twice with 200 μl per well of FACS buffer. For secondary staining, cells were spun down and resuspended in 100 μl per well of PE-conjugated goat anti-mouse IgG F(ab′)2 detection fragment (Dianova, Germany) diluted 1:100 in FACS buffer. Protected from light, the cell suspensions were incubated on ice for 1 hour. […] Finally, cells were resuspended in 150 μl per well of FACS buffer and analyzed using a BD Accuri™ C6 Plus flow cytometer (Becton Dickinson, Germany).

The next assay concerns the target T2, hiR2-FL-M534S-T7 (human, UniProt Q6PJF5 1-856).
T2 sequence: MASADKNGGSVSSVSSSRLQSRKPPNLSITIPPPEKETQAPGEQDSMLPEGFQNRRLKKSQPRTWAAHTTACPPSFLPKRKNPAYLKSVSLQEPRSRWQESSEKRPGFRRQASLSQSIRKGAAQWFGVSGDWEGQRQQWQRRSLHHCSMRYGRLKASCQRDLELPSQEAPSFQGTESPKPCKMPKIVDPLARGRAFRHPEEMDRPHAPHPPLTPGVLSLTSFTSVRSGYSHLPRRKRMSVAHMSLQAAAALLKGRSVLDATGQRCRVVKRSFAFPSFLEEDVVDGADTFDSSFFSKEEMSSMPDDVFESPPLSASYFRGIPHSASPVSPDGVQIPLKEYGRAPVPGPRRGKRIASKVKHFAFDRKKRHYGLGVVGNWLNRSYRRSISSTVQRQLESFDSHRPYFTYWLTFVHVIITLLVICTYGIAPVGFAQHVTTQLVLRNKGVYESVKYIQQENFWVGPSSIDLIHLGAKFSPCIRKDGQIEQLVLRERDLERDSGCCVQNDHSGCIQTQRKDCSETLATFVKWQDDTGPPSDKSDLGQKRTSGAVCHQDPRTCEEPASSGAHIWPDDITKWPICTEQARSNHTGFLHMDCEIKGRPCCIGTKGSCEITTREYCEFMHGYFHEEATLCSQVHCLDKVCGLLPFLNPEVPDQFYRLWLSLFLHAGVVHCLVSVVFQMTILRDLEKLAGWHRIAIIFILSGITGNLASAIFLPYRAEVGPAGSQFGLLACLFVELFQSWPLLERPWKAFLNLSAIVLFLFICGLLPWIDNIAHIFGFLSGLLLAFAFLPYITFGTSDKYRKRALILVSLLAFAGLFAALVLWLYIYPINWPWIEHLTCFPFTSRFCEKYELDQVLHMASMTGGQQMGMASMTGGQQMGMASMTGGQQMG
The assay can be described thus: FACS, MEF-DKO cells, 3 µg/ml.

B1: antibody 48 (antibody, V domains shown)
VH: QVQLQQSGTELVRPGTSVKVSCKASGYAFTNYLIEWVKQRPGQGLEWIGVINPGSGFTKYNEKFKGKATLTADKSSSTVYMHLSSLTSEDSAVYFCARGLYRAMDYWGQGTSVTVSS
VL: DIQMTQSPASQSASLGESVTITCLASQTIATWLAWYQQKPGKSPQLLIYGATTLADGVPSRFSGGGSGTKFSFKISSLQAEDFVSYYCQQLYSTPYTFGGGTKLEIK
notes: mouse IgG, kappa light chain; also called clone #48; purified antibody 48
In the case of B1, in the assay with miR2-FL-WT-T7, the binding result was “no binding (tested: 3 µg/ml)”.

B2: antibody 5 (antibody, V domains shown)
VH: QVTLKESGPGILQPSQTLSLTCSFSGFSLSTFGMGVGWIRQPSGKGLEWLAHIWWDDEKYYNSALKSRLTISKATSKNQAFLKIANVDTADTATYYCARISNYGSNYWYFNVWGTGTTVTVSS
VL: QVVLTQSPALMSASPGEKVTMTCSAGSSVSCMYWYQQKPGSSPRVLIYDTSNLASGVPARFTGSGSGTSYSLTISRMEAEDAASYYCQQWNSYPLTFGAGTKLELK
notes: mouse IgG, kappa light chain; also called clone #5; purified antibody 5
As to B2, the “loss of binding vs wild type” value in the assay with hiR2-FL-M534S-T7 is at least 30%.
